Legend:
[1] = target: human FcRn on FcRn-transfected 293FS cells (293FS+FcRn+β2m (clone #2)) (human) (UniProt P55899); experiment: competition flow cytometry; displacement of AF488-labelled IgG1 (3.33 nM) from human FcRn-transfected 293FS cells, pH 5.5
[2] = target: CD16 on CD16-transfected NFAT-bla Jurkat cells (UniProt P08637); experiment: competition flow cytometry; displacement of AF488-labelled human IgG1 (25 nM) from CD16-transfected NFAT-bla Jurkat cells
Sequence of UniProt P08637 (P08637 17-254 limits assumed): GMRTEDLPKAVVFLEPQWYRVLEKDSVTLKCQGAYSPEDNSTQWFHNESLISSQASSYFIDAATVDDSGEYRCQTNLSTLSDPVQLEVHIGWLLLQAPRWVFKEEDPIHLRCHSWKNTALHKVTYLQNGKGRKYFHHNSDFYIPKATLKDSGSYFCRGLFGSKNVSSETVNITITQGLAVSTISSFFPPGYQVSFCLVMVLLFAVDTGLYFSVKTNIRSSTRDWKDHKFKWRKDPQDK

Ki [1]: 200 nM
Ki [2]: 225 nM
Substance: human IgG1 (antibody)

Source: US20190119377A1
